The results in this text go back to US20260061072A1.

The target in the assay is Human Leukocyte Antigen (HLA) on the surface of human cells (human). Nature of the assay: cell-based or functional assay.

“anti-HLA monoclonal antibody clone W6/32 (mouse, ThermoFisher)” showed an antibody concentration of highest luciferase transduction of SKBR3 cells of 10 µg/mL.
